A short description of this data set: collision cross section of modified peptide (TIMS, N2, iRT-aligned); higher = larger / more extended gas-phase ion. On the procedure: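 1/K0 was aligned run-wise to spiked iRT peptides and converted to CCS in N2 (Mason-Schamp). Values are the mean of 1-3 technical replicates for the most abundant feature at each charge state.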
The mark [1] stands for this setting: charge state: 2, modification: GlyGly (K).
[2] abbreviates: charge state: 3, modification: GlyGly (K).
[3] abbreviates: charge state: 3, modification: Methyl (K).
Setting [4] is: charge state: 2, modification: Nitro (Y).
The mark [5] stands for this setting: charge state: 2, modification: Glutarylation.
Where [6] appears, read: charge state: 2, modification: hydroxyisobutyryl.
Where [7] appears, read: charge state: 2, modification: Dimethyl (K).
Setting [8] is: charge state: 3, modification: Dimethyl (K).
The mark [9] stands for this setting: charge state: 2, modification: Malonyl.
Setting [10] is: charge state: 3, modification: Malonyl.
Setting [11] is: charge state: 2, modification: HexNAc (ST).
The mark [12] stands for this setting: charge state: 2, modification: Succinyl.
The mark [13] stands for this setting: charge state: 2, modification: Biotin.
[14] abbreviates: charge state: 2, modification: Formyl.
Where [15] appears, read: charge state: 3, modification: Formyl.
The mark [16] stands for this setting: charge state: 2, modification: Phospho (Y).
Setting [17] is: charge state: 3, modification: Phospho (Y).
The mark [18] stands for this setting: charge state: 2, modification: Methyl (R).
The mark [19] stands for this setting: charge state: 3, modification: Methyl (R).
The mark [20] stands for this setting: charge state: 3, modification: Succinyl.
Setting [21] is: charge state: 2, modification: Crotonyl.
Setting [22] is: charge state: 3, modification: Crotonyl.
Where [23] appears, read: charge state: 2, modification: Butyryl.
The mark [24] stands for this setting: charge state: 3, modification: Hydroxyproline.
Setting [25] is: charge state: 2, modification: Methyl (K).
[26] abbreviates: charge state: 2, modification: Trimethyl (K).
Setting [27] is: charge state: 3, modification: Trimethyl (K).
[28] abbreviates: charge state: 2, modification: Propionyl.
Where [29] appears, read: charge state: 2, modification: Hydroxyproline.

± gives the standard deviation.

As for LLEEEDSKLK [_LLEEEDSK(GlyGly (K))LK_], the collision cross section is, setting by setting: under setting [1], 386.87 ± 0.88 Å²; under setting [2], 453.7 ± 1.6 Å².
As for “IHNAENIQPGEQKYEYK [_IHNAENIQPGEQK(Methyl (K))YEYK_]”, the collision cross section under setting [3] stood at 526.19 ± 0.79 Å².
Consider ALYETELADAR [_ALY(Nitro (Y))ETELADAR_], for which, under setting [4], the collision cross section worked out at 387.94 ± 0.55 Å².
As for “LTSLNVKYNNDK [_LTSLNVK(Gluratylation)YNNDK_]”, the collision cross section under setting [5] came to 413.21 ± 1.1 Å².
Consider “ALLQAKASGK [_ALLQAK(hydroxyisobutyryl)ASGK_]”, for which, under setting [6], the collision cross section was 353.14 ± 1.3 Å².
For “IQTKAGEATVK [_IQTK(Dimethyl (K))AGEATVK_]”, the collision cross section under setting [7] was determined as 367.67 ± 0.82 Å².
Turning to “VNVEAPDVNLEGLGGKLK [_VNVEAPDVNLEGLGGK(GlyGly (K))LK_]”, the collision cross section by setting is: under setting [1], 470.77 ± 1.4 Å²; under setting [2], 551.19 ± 1.1 Å².
Take “GADFLVTEVENGGSLGSKK [_GADFLVTEVENGGSLGSK(Dimethyl (K))K_]”: under setting [8], the collision cross section amounted to 539.44 Å².
Consider “VDVEVPDVSLEGPEGKLK [_VDVEVPDVSLEGPEGK(Malonyl)LK_]”, for which the collision cross section runs as follows: under setting [9], 466.73 ± 0.63 Å²; under setting [10], 496.84 Å².
Take “SNEEGSEEKGPEVR [_SNEEGSEEK(hydroxyisobutyryl)GPEVR_]”: the collision cross section under setting [6] is 409.53 ± 1.1 Å².
With “LSQEDPDYGIR [_LS(HexNAc (ST))QEDPDYGIR_]”, under setting [11], the collision cross section was found to be 396.72 ± 0.76 Å².
In the case of “TVSKVDDFLANEAK [_TVSK(Succinyl)VDDFLANEAK_]”, the collision cross section under setting [12] turned out to be 425.01 ± 0.52 Å².
On to SLFFGGKGAPLQR [_SLFFGGK(Biotin)GAPLQR_], for which the collision cross section under setting [13] amounted to 419.13 Å².
In the case of “VNIGQGSHPQKVK [_VNIGQGSHPQK(Dimethyl (K))VK_]”, the collision cross section by setting is: under setting [7], 407.47 ± 1.1 Å²; under setting [8], 469.28 Å².
Turning to VNALKNLQVK [_VNALK(Formyl)NLQVK_], the collision cross section under setting [14] came out at 363.1 ± 0.39 Å².
Turning to “TQAYQDQKPGTSGLR [_TQAYQDQK(Dimethyl (K))PGTSGLR_]”, the collision cross section under setting [8] is given as 464.17 ± 1.6 Å².
In turn, “EPFSGDHSADGFEVTSR [_EPFS(HexNAc (ST))GDHSADGFEVTSR_]” yielded a collision cross section (charge state: 3, modification: HexNAc (ST)) of 513.98 ± 1.8 Å².
In turn, “GEVQVSDKER [_GEVQVSDK(hydroxyisobutyryl)ER_]” returned a collision cross section under setting [6] of 366.78 ± 0.27 Å².
For “STGLELETPSLVPVKK [_STGLELETPSLVPVK(Formyl)K_]”, the collision cross section is on record as 431.64 ± 1.2 Å² under setting [14] and 516.5 ± 3 Å² under setting [15].
With VYSGHQGR [_VY(Phospho (Y))SGHQGR_], the collision cross section by setting is: under setting [16], 330.73 ± 0.068 Å²; under setting [17], 415.14 ± 2.5 Å².
With “LGVATVAKGVCGACK [_LGVATVAK(Succinyl)GVCGACK_]”, under setting [12], the collision cross section came to 417.57 ± 0.55 Å².
“SGGRGVSVSSAR [_SGGR(Methyl (R))GVSVSSAR_]”: the collision cross section reads like this: under setting [18], 362.59 ± 13 Å²; under setting [19], 443.44 ± 0.81 Å².
Regarding “ATVASSTQKFQDLGVK [_ATVASSTQK(Succinyl)FQDLGVK_]”, the collision cross section was found to be 444.76 ± 1.1 Å² under setting [12] and 493.48 ± 0.68 Å² under setting [20].
Consider LRQQLQAK [_LR(Methyl (R))QQLQAK_], for which the collision cross section runs as follows: under setting [18], 356.39 ± 9.6 Å²; under setting [19], 413.25 ± 2 Å².
In the case of INNFSADIKDSK [_INNFSADIK(Crotonyl)DSK_], the collision cross section stood at 405.9 ± 0.28 Å² under setting [21] and 458.84 ± 1.6 Å² under setting [22].
Under setting [9], SSFAYKDQNENR [_SSFAYK(Malonyl)DQNENR_] came in with a collision cross section of 401.56 ± 0.03 Å².
In the case of “GTVPDDAVEALADSLGKK [_GTVPDDAVEALADSLGK(Butyryl)K_]”, the collision cross section was 458.53 ± 0.36 Å² under setting [23] and 534.24 ± 1.4 Å² (charge state: 3, modification: Butyryl).
Sequence DYSVTANSK [_DY(Nitro (Y))SVTANSK_] displayed a collision cross section under setting [4] of 331.98 ± 0.55 Å².
Under setting [24], “TGPPGSTGSRGPPGPPGR [_TGPPGSTGSRGPPGPP(Hydroxyproline)GR_]” had a collision cross section of 472.54 ± 0.36 Å².
Consider “GTITVSAQELKDNR [_GTITVSAQELK(Succinyl)DNR_]”, for which the collision cross section came to 421.79 ± 0.53 Å² under setting [12] and 480.4 ± 2.5 Å² under setting [20].
Consider “GTITVSAQELKDNR [_GTITVSAQELK(Methyl (K))DNR_]”, for which the collision cross section is listed as 439.73 ± 1.7 Å² under setting [25] and 485.75 ± 3.3 Å² under setting [3].
“DKALPLEAEVAPVK [_DK(Gluratylation)ALPLEAEVAPVK_]” had a collision cross section under setting [5] of 424.54 ± 0.97 Å².
SSFAYKDQNENR [_SSFAYK(Crotonyl)DQNENR_]: the collision cross section is, setting by setting: under setting [21], 403.46 ± 0.27 Å²; under setting [22], 461.83 ± 1.6 Å².
In the case of “SNEEGSEEKGPEVR [_SNEEGSEEK(Trimethyl (K))GPEVR_]”, the collision cross section reads like this: under setting [26], 400.43 Å²; under setting [27], 464.15 ± 1.8 Å².
As for “SSGPGGQNVNKVNSK [_SSGPGGQNVNK(Crotonyl)VNSK_]”, the collision cross section under setting [21] was found to be 407.39 ± 1.4 Å².
“AEGYEVAHGGR [_AEGY(Phospho (Y))EVAHGGR_]” displayed a collision cross section under setting [16] of 370.65 ± 0.064 Å² and a collision cross section under setting [17] of 440.52 Å².
On to “TQAYQDQKPGTSGLR [_TQAYQDQK(Malonyl)PGTSGLR_]”, for which the collision cross section worked out at 430.62 ± 0.59 Å² under setting [9] and 484.2 Å² under setting [10].
On to SGKFTQQDIDEAK [_SGK(Biotin)FTQQDIDEAK_], for which the collision cross section under setting [13] is 433.94 ± 2.7 Å².
As to LEEVTGKLQVAR [_LEEVTGK(Biotin)LQVAR_], the collision cross section amounted to 414.01 ± 0.23 Å² under setting [13] and 494.02 ± 0.34 Å² (charge state: 3, modification: Biotin).
Sequence “LFVGGIKEDTEEHHLR [_LFVGGIK(Methyl (K))EDTEEHHLR_]” returned a collision cross section under setting [3] of 545.41 Å².
In the case of “LDEKENLSAK [_LDEK(hydroxyisobutyryl)ENLSAK_]”, the collision cross section under setting [6] turned out to be 373.33 ± 0.28 Å².
“GTISAPGKVVTAAAQAK [_GTISAPGK(Trimethyl (K))VVTAAAQAK_]” registered a collision cross section under setting [26] of 476.61 ± 0.99 Å² and a collision cross section under setting [27] of 496.52 ± 0.86 Å².
TYVQDILR [_TY(Phospho (Y))VQDILR_] showed a collision cross section under setting [16] of 359.66 ± 0.65 Å².
As to AGQKLIDVNHYAK [_AGQK(Formyl)LIDVNHYAK_], the collision cross section by setting is: under setting [14], 428.61 ± 0.79 Å²; under setting [15], 474.19 ± 2.1 Å².
Sequence “VDIDAPDVSIEGPDAKLK [_VDIDAPDVSIEGPDAK(Malonyl)LK_]” yielded a collision cross section under setting [9] of 466.92 ± 1.2 Å².
For ALLQAKASGK [_ALLQAK(Propionyl)ASGK_], the collision cross section under setting [28] came out at 350.75 ± 0.49 Å².
As for “DAEAAEATAEGALKAEK [_DAEAAEATAEGALK(GlyGly (K))AEK_]”, the collision cross section is listed as 475 ± 1.6 Å² under setting [1] and 538.51 ± 1.1 Å² under setting [2].
Sequence VIVGGSSEYK [_VIVGGSSEY(Nitro (Y))K_] yielded a collision cross section under setting [4] of 344.24 ± 0.72 Å².
“TAIQAAGYPDK [_TAIQAAGY(Phospho (Y))PDK_]” returned a collision cross section under setting [16] of 361.65 ± 9.9 Å².
For “GGPGAPGAPGPKGESGDYK [_GGP(Hydroxyproline)GAPGAPGPKGESGDYK_]”, the collision cross section runs as follows: under setting [29], 431.65 ± 0.34 Å²; under setting [24], 482.83 ± 2.3 Å².
ASNAAVKLAESK [_ASNAAVK(Succinyl)LAESK_] displayed a collision cross section under setting [12] of 372.84 ± 0.87 Å².
Take “VDIDVPDVNIEGPDAKLK [_VDIDVPDVNIEGPDAK(Butyryl)LK_]”: under setting [23], the collision cross section was found to be 488.42 ± 0.47 Å².
INNFSADIKDSK [_INNFSADIK(Biotin)DSK_]: under setting [13], the collision cross section turned out to be 419.19 Å².
As to “TSAVSSQANSQPPVQVSVK [_TSAVSSQANSQPPVQVS(HexNAc (ST))VK_]”, under setting [11], the collision cross section is listed as 471.02 Å².
For YVGESEANIR [_Y(Nitro (Y))VGESEANIR_], the collision cross section under setting [4] amounted to 357.77 ± 0.55 Å².
Take LLEEEDSKLK [_LLEEEDSK(Methyl (K))LK_]: the collision cross section by setting is: under setting [25], 382.93 ± 0.7 Å²; under setting [3], 439.97 ± 5.9 Å².
Regarding “IVSGKDYNVTANSK [_IVSGK(Propionyl)DYNVTANSK_]”, the collision cross section under setting [28] is 411.4 ± 0.64 Å².
Take “LLIVSTTPYSEKDTK [_LLIVSTTPYSEK(Propionyl)DTK_]”: the collision cross section under setting [28] was 452.01 Å².
In turn, IQTKAGEATVK [_IQTK(Succinyl)AGEATVK_] displayed a collision cross section under setting [12] of 366.8 ± 0.24 Å².
In the case of “GDNGSVGEPGPK [_GDNGSVGEP(Hydroxyproline)GPK_]”, the collision cross section under setting [29] was 344.87 ± 1.1 Å².
For “GETASKLQSEISR [_GETASK(hydroxyisobutyryl)LQSEISR_]”, the collision cross section under setting [6] stood at 394.7 ± 0.81 Å².
“SSFAYKDQNENR [_SSFAYK(Gluratylation)DQNENR_]”: the collision cross section reads like this: under setting [5], 404.81 ± 0.5 Å²; (charge state: 3, modification: Glutarylation) 472.81 ± 1.2 Å².

Source of the values: the supplement of paper PMC10598134.
